Here are results for 16 sequences from the nanobody polyreactivity screen of Harvey et al. (2022).

The nature of the data set: yeast display, Sf9 membrane polyspecificity reagent, FACS + sequencing; frameworks hold sequencing errors. The gist of the method:
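After 36–48 hours of galactose induction, yeast (Saccharomyces cerevisiae BJ5465) displaying a synthetic nanobody library were stained at 4 °C for 1 hour with 10% biotinylated, detergent-solubilized Sf9 membrane reagent. Streptavidin microbeads enriched the stained cells before FACS sorting into low and high (top ~1%) gates on anti-HA and streptavidin fluorescence. Each clone's polyreactivity label reflects its gate of origin.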
Consider “QDQLEDSGGGLVQAGGSLRLSCAASGRTFTLYAMGWSRQAPGKERELVASISRSGGSTYYADSVKGRFTISRDNAKNTVYLQMNSVKPEDTAVDYCAARRFAWLFIYDYWGQGTQVTVSS”, for which the “polyreactivity (PSR sort gate)” value is “high polyreactivity”.
“QVQLVESGGGLVQAGGSLRLSCAASGRIFKYNAMGWYRQAPGKERELVAAIRRSGGSTYYADSVKGRFTISRDNAKNPVYLQMNSLNPEDTAVYYCAATGYVGGIYGHYPRGYWGQGTQVTVSS”: the “polyreactivity (PSR sort gate)” value is recorded as “high polyreactivity”.
Regarding “QVQLVESGGGLVQAGGSLRLSCAASGLIFSSYAMGWYRQAPGKERELVAAISGSGGSTYYADSEKGRFTISRDNAKNTVYLQMNSLKPEDTAVYYCAAELDDYWVVSEDSSGQGTQVTVSS”, the “polyreactivity (PSR sort gate)” value was “low polyreactivity”.
The same measure for “HVQLVESGGGLVQAGGSLRLSCAASGSTFSYYAMGWYRQAPGKERELVAAITSGGRTKYADSVKGRFTISRDNAKNTVYLQMNSLKPEDTAVYYCAKRIEKFSGSLAGRWYDYWGQGTQVTVSS”: “high polyreactivity”; for “QVQLVESGGGFFQAGGSLRLSCAASGSTFGYYTMGWYRQAPGKERELVAAISSGGSRTNYADSVKGRFTISRDNAKNTVYLQMNILKPEDTAVYYCARQSYGGTNRYYYWGQGTQVTVSS”: “high polyreactivity”; for “QVQLVESVGGLVQAGGSLRLSCAASGSISGYYAMGWYRQAPGKERELVASIRYTGARTYYADSVKGRFTISRDNAKNTVYLQMHSLKPEDTAVYYCAADVNRDRVWGGDYWGQGTQVTVSS”: “low polyreactivity”.
Consider “QVQLVESGGGLVQAGGSLRLSCAASGIIFIGYAMGWYSQAPGKERELVAAISTRGSTTNYADSVKGRFTISRDNAKNTVYLQMNSLKPEDTAVYYCAARKYPSYRYPTGDYWGQGTQVTVSS”, for which the “polyreactivity (PSR sort gate)” value is on record as “high polyreactivity”.
The entry for “QDQLVESGGGLVQGGGSLRLSCAASGRIFSPYAMGWYRQAPGKEREVVAAITSASSTYYADSVKGRFTISRDNAKNTVYLQMNSLKPEDTAVNYCAASYWRYGSAFDYWGHGTQVTVSS” is “high polyreactivity”; for “QVQLVESGGGLVQAGGSLRLSCAASGFIFSYYAMGWYRQAPGKERELVAAISSSGGTTYADSVKGRFTISRDNAKNTVYLQMNSLKPEDTAVYYCARVQYWFYKPMYYWGQGTQVNVSS” it is “high polyreactivity”; for “QVQLVESGGALVQAGGSLRISCAASGFTLQRNTMGWYRQAPGKDREFVAAISVRGGSTYYADSVKGRFTNSRDTAKNTVYLQMNSLKPEDTAVYYCAAVGRPSQYSYPYGYWGQGTQVTVSS” it is “high polyreactivity”.
The entry for “QVQLVESGGGLVQAGGSLRLSCAASGSIFGNTMGWYRQAPGKEWEFVAAISSTGGNTYYADSVKGRFTISRDNAKITVYLQMNSLKPEDTAVYYCNRRYRYRFGYWGQGTQVTVSS” is “high polyreactivity”; for “QVQLVESGGGLVQAGGSLRLSCAASGRTFSVNAMGWYRQAPGKERELVATISYRGGSTYYADSVKGRFTISRDNAKNTVYLQMNSLKPEDTAVYYCAAGWRYWGRIYRDYDSWGQGTQVTVSS” it is “high polyreactivity”.
Take “QVQLVESGGGLVQAGGSLRLSCAASGFIFSYNAMGSYRQAPGKERELVAAISRRGGSTYYADSVKGRFTISRDNAKNTVYLQMNSLKPEDTAVYYCAAKSYLDSSGTFNYWGQGTQVTVSS”: the “polyreactivity (PSR sort gate)” value is “high polyreactivity”.
For the sequence “QVQLVESGGGLVQAGGSLRLSCAATGRIFWDYAMGWYRQAPGKERELVAANAWGSGRTYYADSVKGRFTISRDNAKNTVNLQMNSLKPEDTAVYYCHAVRYLFIYPRYDYWGQGTQVTVSS”, the “polyreactivity (PSR sort gate)” value is reported as “high polyreactivity”.
For “QVQLVESGGGVVQAGGSLRLSCAASGRTFPYYTMGWYRQAPGKERELVAAITRSGDSTYYADSVKGRFTISRDNAKNTVYLQMYSLKPEDTAVYYCAADIWSSDYEEFYYWGLGTQVTVSS”, the “polyreactivity (PSR sort gate)” value is given as “low polyreactivity”.
As for “QVQLVESGGGLVQAGGSLRLSCAASGFTFKTYAMGSYRPAPGKEREFVAAISSRGGSTYYSDSVKGRFTISRDNAKNTVYLQMHSLKPEDTAVYYCATATRPRDRYSRYGYWGQGTQVTVSS”, the “polyreactivity (PSR sort gate)” value is on record as “high polyreactivity”.
